Reference: patent US20230174642A1, “AFFINITY-MATURATED ANTI-ASIC1a ANTIBODIES” (SHANGHAITECH UNIVERSITY, priority 2019, published 2023)

T1: hASIC1a on CHO-K1 cells stably expressing hASIC1a (human, UniProt P78348 1-528)
T1 sequence (looked up): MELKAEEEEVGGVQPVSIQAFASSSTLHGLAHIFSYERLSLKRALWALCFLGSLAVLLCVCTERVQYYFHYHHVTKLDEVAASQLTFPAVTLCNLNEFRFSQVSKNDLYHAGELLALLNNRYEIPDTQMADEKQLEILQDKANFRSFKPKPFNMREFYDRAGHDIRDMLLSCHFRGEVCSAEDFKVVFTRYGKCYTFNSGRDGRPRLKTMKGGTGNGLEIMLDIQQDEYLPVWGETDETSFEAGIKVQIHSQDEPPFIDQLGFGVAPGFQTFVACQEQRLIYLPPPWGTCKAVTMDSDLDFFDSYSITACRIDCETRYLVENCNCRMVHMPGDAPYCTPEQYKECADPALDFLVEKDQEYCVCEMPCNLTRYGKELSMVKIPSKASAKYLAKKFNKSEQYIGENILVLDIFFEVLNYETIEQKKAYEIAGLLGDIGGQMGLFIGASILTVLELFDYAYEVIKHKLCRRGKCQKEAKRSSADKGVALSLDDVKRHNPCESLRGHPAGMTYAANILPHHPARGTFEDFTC

T2: human ASIC3a (hASIC3a-eYFP) (Homo sapiens, UniProt Q9UHC3)
T2 construct: expressed in transfected cells; host or cells: CHO-K1 (transient)
T2 sequence (Q9UHC3 1-531): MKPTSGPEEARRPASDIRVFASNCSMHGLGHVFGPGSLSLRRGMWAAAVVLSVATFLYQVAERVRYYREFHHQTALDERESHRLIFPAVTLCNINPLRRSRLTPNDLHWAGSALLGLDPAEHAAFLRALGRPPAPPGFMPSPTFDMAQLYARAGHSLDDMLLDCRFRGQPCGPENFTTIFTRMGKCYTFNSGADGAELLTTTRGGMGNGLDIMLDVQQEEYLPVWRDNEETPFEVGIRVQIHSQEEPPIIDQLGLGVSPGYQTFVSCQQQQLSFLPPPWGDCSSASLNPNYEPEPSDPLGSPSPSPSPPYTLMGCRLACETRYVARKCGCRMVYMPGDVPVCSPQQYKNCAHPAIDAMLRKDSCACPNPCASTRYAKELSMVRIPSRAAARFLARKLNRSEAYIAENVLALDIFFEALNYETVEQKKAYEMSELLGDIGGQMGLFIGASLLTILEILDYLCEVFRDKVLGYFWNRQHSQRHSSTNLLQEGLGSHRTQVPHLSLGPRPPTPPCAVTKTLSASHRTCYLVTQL

T3: human ASIC1b (hASIC1b-eYFP) (Homo sapiens, UniProt P78348)
T3 construct: expressed in transfected cells; host or cells: CHO-K1 (transient)
T3 sequence (P78348 1-562 isoform P78348-3): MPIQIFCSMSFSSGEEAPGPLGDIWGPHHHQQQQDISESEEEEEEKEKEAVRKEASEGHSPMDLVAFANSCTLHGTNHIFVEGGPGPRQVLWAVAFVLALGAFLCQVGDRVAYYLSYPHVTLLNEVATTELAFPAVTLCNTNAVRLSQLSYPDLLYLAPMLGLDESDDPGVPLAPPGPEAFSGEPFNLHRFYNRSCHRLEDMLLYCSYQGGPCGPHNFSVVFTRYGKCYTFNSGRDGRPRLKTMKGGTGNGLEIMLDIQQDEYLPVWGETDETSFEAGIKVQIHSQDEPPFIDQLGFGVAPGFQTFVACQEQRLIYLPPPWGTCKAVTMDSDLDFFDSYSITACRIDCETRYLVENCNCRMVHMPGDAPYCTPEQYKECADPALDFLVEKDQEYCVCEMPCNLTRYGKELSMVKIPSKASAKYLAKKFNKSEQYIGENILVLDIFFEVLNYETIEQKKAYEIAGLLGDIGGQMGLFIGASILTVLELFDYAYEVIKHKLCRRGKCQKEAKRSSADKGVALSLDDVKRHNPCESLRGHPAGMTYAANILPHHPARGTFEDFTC

T4: human ASIC2a (hASIC2a-eYFP) (Homo sapiens, UniProt Q16515)
T4 construct: expressed in transfected cells; host or cells: CHO-K1 (transient)
T4 sequence (Q16515 1-512): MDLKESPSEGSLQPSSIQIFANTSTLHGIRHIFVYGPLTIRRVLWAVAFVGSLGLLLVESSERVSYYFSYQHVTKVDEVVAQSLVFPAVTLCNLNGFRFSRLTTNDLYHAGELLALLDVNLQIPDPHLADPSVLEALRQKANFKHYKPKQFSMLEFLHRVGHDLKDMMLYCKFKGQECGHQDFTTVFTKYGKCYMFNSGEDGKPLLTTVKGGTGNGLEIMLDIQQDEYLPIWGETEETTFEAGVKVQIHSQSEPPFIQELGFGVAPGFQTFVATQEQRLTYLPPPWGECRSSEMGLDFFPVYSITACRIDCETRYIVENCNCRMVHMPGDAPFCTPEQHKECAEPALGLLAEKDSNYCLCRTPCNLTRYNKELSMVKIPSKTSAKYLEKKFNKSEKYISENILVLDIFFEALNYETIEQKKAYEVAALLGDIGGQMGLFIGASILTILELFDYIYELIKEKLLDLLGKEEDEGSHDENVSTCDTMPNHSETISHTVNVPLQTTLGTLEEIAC

T5: ASIC1a (Homo sapiens, UniProt P78348)
T5 construct: expressed in transfected cells
T5 sequence (P78348 1-528): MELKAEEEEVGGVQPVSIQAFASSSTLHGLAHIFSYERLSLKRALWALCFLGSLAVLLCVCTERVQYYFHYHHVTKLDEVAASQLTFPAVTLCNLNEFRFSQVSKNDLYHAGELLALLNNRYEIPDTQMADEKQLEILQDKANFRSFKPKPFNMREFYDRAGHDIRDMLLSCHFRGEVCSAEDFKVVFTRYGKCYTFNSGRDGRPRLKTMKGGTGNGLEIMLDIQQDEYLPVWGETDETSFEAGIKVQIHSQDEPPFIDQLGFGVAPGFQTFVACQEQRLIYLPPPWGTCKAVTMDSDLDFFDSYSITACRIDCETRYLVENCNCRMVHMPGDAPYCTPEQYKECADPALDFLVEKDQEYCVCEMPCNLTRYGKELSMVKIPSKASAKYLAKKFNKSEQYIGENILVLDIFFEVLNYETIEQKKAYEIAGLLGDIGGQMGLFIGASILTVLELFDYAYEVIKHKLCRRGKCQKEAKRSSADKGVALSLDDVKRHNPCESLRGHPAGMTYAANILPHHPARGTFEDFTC

B1: ASC06-01-IgG1 (antibody, V domains shown)
VH: QVQLQQSGGGLVQPGGSLRLSCAASGFTFSSYAMSWVRQAPGKGLEWVSAISGSGGSTYYADSVKGRFTISRDNSKNTLYLQMNSLRAEDTAVYYCAKDSYFGYSKGDWGQGTLVTVSS
VL: QSALTQPASVSGSPGQSITISCTGTSSDVGAYNYVSWYQQQPGKAPKLMIYGVSNRPSGVSNRFSGSKSGNAASLTISGLQAEDEADYYCSSYTSSSTYVFGTGTKLTVLG
notes: Full length IgG1
B2: ASC06-04-IgG1: affinity-matured ASC06 derivative, VH-CDR3 DSFYGRAKGV (SEQ ID NO: 17) (antibody, V domains shown)
VH: QVQLQQSGGGLVQPGGSLRLSCAASGFTFSSYAMSWVRQAPGKGLEWVSAISGSGGSTYYADSVKGRFTISRDNSKNTLYLQMNSLRAEDTAVYYCAKDSFYGRAKGVWGQGTLVTVSS
VL: QSALTQPASVSGSPGQSITISCTGTSSDVGAYNYVSWYQQQPGKAPKLMIYGVSNRPSGVSNRFSGSKSGNAASLTISGLQAEDEADYYCSSYTSSSTYVFGTGTKLTVLG
B3: ASC06-IgG1: parental (WT) ASIC1a-specific antagonist antibody; VL SEQ ID NO: 2, VH SEQ ID NO: 7, VH-CDR3 DSFYGYSKGD (antibody, V domains shown)
VH: QVQLQQSGGGLVQPGGSLRLSCAASGFTFSSYAMSWVRQAPGKGLEWVSAISGSGGSTYYADSVKGRFTISRDNSKNTLYLQMNSLRAEDTAVYYCAKDSFYGYSKGDWGQGTLVTVSS
VL: QSALTQPASVSGSPGQSITISCTGTSSDVGAYNYVSWYQQQPGKAPKLMIYGVSNRPSGVSNRFSGSKSGNAASLTISGLQAEDEADYYCSSYTSSSTYVFGTGTKLTVLG
modifications: IgG1 constant regions; Amino acid sequence VH of ASC06; Amino acid sequence VL of ASC06
B4: ASC06-02-IgG1: affinity-matured ASC06 derivative, VH-CDR3 DSFFGRAKGS (SEQ ID NO: 13) (antibody, V domains shown)
VH: QVQLQQSGGGLVQPGGSLRLSCAASGFTFSSYAMSWVRQAPGKGLEWVSAISGSGGSTYYADSVKGRFTISRDNSKNTLYLQMNSLRAEDTAVYYCAKDSFFGRAKGSWGQGTLVTVSS
VL: QSALTQPASVSGSPGQSITISCTGTSSDVGAYNYVSWYQQQPGKAPKLMIYGVSNRPSGVSNRFSGSKSGNAASLTISGLQAEDEADYYCSSYTSSSTYVFGTGTKLTVLG
B5: ASC06-01-IgG1: affinity-matured ASC06 derivative, VH-CDR3 DSYFGYSKGD (SEQ ID NO: 11) (antibody, V domains shown)
VH: QVQLQQSGGGLVQPGGSLRLSCAASGFTFSSYAMSWVRQAPGKGLEWVSAISGSGGSTYYADSVKGRFTISRDNSKNTLYLQMNSLRAEDTAVYYCAKDSYFGYSKGDWGQGTLVTVSS
VL: QSALTQPASVSGSPGQSITISCTGTSSDVGAYNYVSWYQQQPGKAPKLMIYGVSNRPSGVSNRFSGSKSGNAASLTISGLQAEDEADYYCSSYTSSSTYVFGTGTKLTVLG
B6: ASC06-03-IgG1: affinity-matured ASC06 derivative, VH-CDR3 DSFYGRAKGS (SEQ ID NO: 15) (antibody, V domains shown)
VH: QVQLQQSGGGLVQPGGSLRLSCAASGFTFSSYAMSWVRQAPGKGLEWVSAISGSGGSTYYADSVKGRFTISRDNSKNTLYLQMNSLRAEDTAVYYCAKDSFYGRAKGSWGQGTLVTVSS
VL: QSALTQPASVSGSPGQSITISCTGTSSDVGAYNYVSWYQQQPGKAPKLMIYGVSNRPSGVSNRFSGSKSGNAASLTISGLQAEDEADYYCSSYTSSSTYVFGTGTKLTVLG
B7: ASC06-02-IgG1 (antibody, V domains shown)
VH: QVQLQQSGGGLVQPGGSLRLSCAASGFTFSSYAMSWVRQAPGKGLEWVSAISGSGGSTYYADSVKGRFTISRDNSKNTLYLQMNSLRAEDTAVYYCAKDSFFGRAKGSWGQGTLVTVSS
VL: QSALTQPASVSGSPGQSITISCTGTSSDVGAYNYVSWYQQQPGKAPKLMIYGVSNRPSGVSNRFSGSKSGNAASLTISGLQAEDEADYYCSSYTSSSTYVFGTGTKLTVLG
notes: Full length IgG1
B8: ASC06-04-IgG1 (antibody, V domains shown)
VH: QVQLQQSGGGLVQPGGSLRLSCAASGFTFSSYAMSWVRQAPGKGLEWVSAISGSGGSTYYADSVKGRFTISRDNSKNTLYLQMNSLRAEDTAVYYCAKDSFYGRAKGVWGQGTLVTVSS
VL: QSALTQPASVSGSPGQSITISCTGTSSDVGAYNYVSWYQQQPGKAPKLMIYGVSNRPSGVSNRFSGSKSGNAASLTISGLQAEDEADYYCSSYTSSSTYVFGTGTKLTVLG
notes: Full length IgG1
B9: ASC06-IgG1 (antibody, V domains shown)
VH: QVQLQQSGGGLVQPGGSLRLSCAASGFTFSSYAMSWVRQAPGKGLEWVSAISGSGGSTYYADSVKGRFTISRDNSKNTLYLQMNSLRAEDTAVYYCAKDSFYGYSKGDWGQGTLVTVSS
VL: QSALTQPASVSGSPGQSITISCTGTSSDVGAYNYVSWYQQQPGKAPKLMIYGVSNRPSGVSNRFSGSKSGNAASLTISGLQAEDEADYYCSSYTSSSTYVFGTGTKLTVLG
notes: Tested as full length IgG1; also called WT antibody ASC06-IgG1; parental ASC06-IgG1 antibody

Key:
[1] = target: T1, hASIC1a on CHO-K1 cells stably …; assay: cell-based or functional assay
[2] = target: T2, human ASIC3a (hASIC3a-eYFP); assay: FACS-based binding assay, transiently transfected CHO-K1 cells (isotype selectivity)
From the text: (§1) To examine the ASIC isotype selectivity of ASC06-IgG1 affinity-matured antibodies, plasmids encoding fusion proteins of eYFP with isoforms of […] were constructed. These plasmids included those encoding human ASIC1b (hASIC1b-eYFP), human ASIC2a (hASIC2a-eYFP), and human ASIC3a (hASIC3a-eYFP). CHO-K1 cells were transiently transfected with these plasmids and used in a FACS-based binding assay disclosed herein. Binding of ASC06-IgG1 to CHO-K1 cells expressing human ASIC1a-eYFP (hASIC1a-eYFP) was used as a positive control (data not shown and FIG. 2), and an isotype control was used as a negative control for binding (NC).

[3] = target: T3, human ASIC1b (hASIC1b-eYFP); assay: as above
From the text: as §1

[4] = target: T4, human ASIC2a (hASIC2a-eYFP); assay: as above
From the text: as §1

ASIC1a = target: T5, ASIC1a; assay: FLIPR-based assay of ASIC1a-mediated calcium influx; format: cell-based; conditions: increasing doses, pH 6
Protocol: The calcium influx of the ASIC1a channel was measured using a Fluorescence Imaging Plate Reader (FLIPR) instrument by measuring the fluorescent signal generated by the intracellular calcium indicator dye Calcium 5 (Molecular Devices) in a stable cell line expressing hASIC1a-m Cherry fusion.
The inhibition to calcium influx the affinity-matured ASC06-IgG1 derivative antibodies was also measured using the FLIPR-based assay. Using these assays, the IC50 values were calculated based on the maximal fluorescent intensity of the intracellular calcium indicator dye.

Molecule | IC50 for the inhibition of ASIC1a currents, FMP assay [1] [nM] | binding to the hASIC3a isoform [2] | binding to the hASIC1b isoform [3] | binding to the hASIC2a isoform [4] | inhibition of calcium influx (ASIC1a)
B1 | 74 |  |  |  | 
B2 |  | no detectable binding | no detectable binding | no detectable binding | 
B3 |  | no detectable binding | no detectable binding | no detectable binding | dose-dependent inhibition
B4 |  | no detectable binding | no detectable binding | no detectable binding | 
B5 |  | no detectable binding | no detectable binding | no detectable binding | 
B6 |  | no detectable binding | no detectable binding | no detectable binding | 
B7 | 30.5 |  |  |  | 
B8 | 51.8 |  |  |  | 
B9 | 251 |  |  |  | 
